According to paper PMC6718144, “Structure of the archaeal chemotaxis protein CheY in a domain-swapped dimeric conformation” (Acta Crystallographica. Section F, Structural Biology …, 2019):

Target: the molecule itself
Experiment: cross-linking; glutaraldehyde, incubation 1, 2, 5 and 10 min before quenching; Coomassie-stained SDS-PAGE

B1: CheF from Pyrococcus horikoshii (PhCheF), non-His-tagged (natural protein, P. horikoshii)
chain: MPIFEARVKVGISSSWVTSRKVSWRDAIAQIESDRIVVKYLKMGEVVGEDSFPFSALIDLGVRIPDELKLNPEKDHFGIKFYIPGRGELLVIFTIEENLLIYDEKKFSEFVHKVFEVLINGKTVMLQLARIIGGAVNMESKWEEGWLRVIKVKSARTQKTERSIVVIIKDKRPVSIFSDLEDIEIEEVDMNGKRVRAWKIRHFHIDQSVTSYLYIPDKQTQLYVLRYLLKYNPAIMEFIMKVSDDFPTLKSEFQEIMEKEIKELEALDEMEKQILVALYSGINPLELHQFLGVSEKEIEEIYDRMIDKGLLKIVMIRKIVDLTNEGRKIVNKLLKYGLVSM
notes: CheF, Pyrococcus horikoshii, ORF PH0494, UniProt O58230; also called PH0494; source: E. coli BL21 Gold (DE3); purified (heating to 80°C, SEC); as lysate supernatant in the pull-down
- stoichiometry N: 2
